How the values were obtained:
[1] = target: T1, Brachyury DNA binding domain G177D (Homo sapiens, UniProt O15178 41-224, G177D); assay: X-ray crystallography; 2.15 A; two protomers per duplex; EMSA: 25 mM HEPES pH 7.4, 75 mM NaCl, 10% glycerol, 0.1% Tween 20, 1 mM TCEP, on ice 10 min; SPR: 10 mM HEPES pH 7.5, 150 mM NaCl, 1 mM DTT, 1% DMSO, temperature not stated; settings: protein: recombinant; chain copies: 2; blunt, self-complementary, 2 copies of strand
T1 sequence: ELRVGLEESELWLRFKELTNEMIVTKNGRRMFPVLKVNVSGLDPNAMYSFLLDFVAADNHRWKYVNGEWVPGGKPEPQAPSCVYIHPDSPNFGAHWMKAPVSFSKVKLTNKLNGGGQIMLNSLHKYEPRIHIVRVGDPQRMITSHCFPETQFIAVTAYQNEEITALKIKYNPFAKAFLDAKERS

[2] = target: T2, Brachyury DNA binding domain WT (Homo sapiens, UniProt O15178 41-224); assay: X-ray crystallography; 2.25 A; two protomers per duplex; EMSA: 25 mM HEPES pH 7.4, 75 mM NaCl, 10% glycerol, 0.1% Tween 20, 1 mM TCEP, on ice 10 min; SPR: 10 mM HEPES pH 7.5, 150 mM NaCl, 1 mM DTT, 1% DMSO, temperature not stated; settings: protein: recombinant; chain copies: 2; blunt, self-complementary, 2 copies of strand
T2 sequence: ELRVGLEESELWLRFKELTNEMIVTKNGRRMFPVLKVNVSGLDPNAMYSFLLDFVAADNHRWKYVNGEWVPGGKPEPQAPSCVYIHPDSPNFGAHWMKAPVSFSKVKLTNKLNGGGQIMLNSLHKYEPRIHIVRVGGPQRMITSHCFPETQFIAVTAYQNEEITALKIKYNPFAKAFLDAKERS

Brachyury full-length WT [3] = target: T3, Brachyury full-length WT (Homo sapiens, UniProt O15178 1-435); assay: SPR; protein immobilized; steady-state fit; EMSA: 25 mM HEPES pH 7.4, 75 mM NaCl, 10% glycerol, 0.1% Tween 20, 1 mM TCEP, on ice 10 min; SPR: 10 mM HEPES pH 7.5, 150 mM NaCl, 1 mM DTT, 1% DMSO, temperature not stated; settings: protein: recombinant; tags: C-terminal AVI tag, biotinylated; N-terminal 9His-GST removed with TEV (construct stated for SPR/DSF); chain copies: 2; label: 32P 5' end (EMSA); none stated (SPR); blunt
T3 sequence: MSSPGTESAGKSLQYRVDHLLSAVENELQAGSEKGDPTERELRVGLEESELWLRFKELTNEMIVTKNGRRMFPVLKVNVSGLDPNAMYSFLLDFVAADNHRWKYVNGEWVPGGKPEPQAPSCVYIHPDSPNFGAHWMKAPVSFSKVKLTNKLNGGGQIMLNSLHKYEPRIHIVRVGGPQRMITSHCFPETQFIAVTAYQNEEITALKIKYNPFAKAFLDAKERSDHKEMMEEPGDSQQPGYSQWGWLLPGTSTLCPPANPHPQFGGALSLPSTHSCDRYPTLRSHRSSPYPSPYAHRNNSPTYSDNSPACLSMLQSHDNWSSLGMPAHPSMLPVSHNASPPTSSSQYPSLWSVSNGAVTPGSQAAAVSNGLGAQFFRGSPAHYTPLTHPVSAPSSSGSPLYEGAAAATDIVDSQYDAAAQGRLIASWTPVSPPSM

[4] = target: T4, Brachyury full-length G177D (Homo sapiens, UniProt O15178 1-435, G177D); assay: as above; settings: protein: recombinant; tags: C-terminal AVI tag, biotinylated; N-terminal 9His-GST removed with TEV (construct stated for SPR/DSF); chain copies: 2; label: 32P 5' end (EMSA); none stated (SPR); blunt
T4 sequence: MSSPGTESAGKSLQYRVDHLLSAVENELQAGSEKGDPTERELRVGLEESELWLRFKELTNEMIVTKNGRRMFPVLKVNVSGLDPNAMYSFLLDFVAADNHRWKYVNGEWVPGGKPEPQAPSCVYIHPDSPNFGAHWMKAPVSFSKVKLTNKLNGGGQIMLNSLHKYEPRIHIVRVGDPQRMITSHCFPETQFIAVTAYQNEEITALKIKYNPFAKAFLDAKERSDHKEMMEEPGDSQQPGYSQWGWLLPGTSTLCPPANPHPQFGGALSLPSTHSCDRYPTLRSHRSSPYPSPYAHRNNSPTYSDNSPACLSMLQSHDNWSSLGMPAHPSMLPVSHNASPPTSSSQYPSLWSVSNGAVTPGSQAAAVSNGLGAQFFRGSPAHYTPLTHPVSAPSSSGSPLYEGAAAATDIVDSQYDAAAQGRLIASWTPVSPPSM

Brachyury full-length WT [5] = target: T3, Brachyury full-length WT; assay: EMSA; apparent; Hill slope 2.3; DNA 1-5 nM; EMSA: 25 mM HEPES pH 7.4, 75 mM NaCl, 10% glycerol, 0.1% Tween 20, 1 mM TCEP, on ice 10 min; SPR: 10 mM HEPES pH 7.5, 150 mM NaCl, 1 mM DTT, 1% DMSO, temperature not stated; settings: protein: recombinant; tags: C-terminal AVI tag, biotinylated; N-terminal 9His-GST removed with TEV (construct stated for SPR/DSF); chain copies: 2; label: 32P 5' end (EMSA); none stated (SPR); blunt
[6] = target: T4, Brachyury full-length G177D; assay: EMSA; apparent; Hill slope 1.8; DNA 1-5 nM; EMSA: 25 mM HEPES pH 7.4, 75 mM NaCl, 10% glycerol, 0.1% Tween 20, 1 mM TCEP, on ice 10 min; SPR: 10 mM HEPES pH 7.5, 150 mM NaCl, 1 mM DTT, 1% DMSO, temperature not stated; settings: protein: recombinant; tags: C-terminal AVI tag, biotinylated; N-terminal 9His-GST removed with TEV (construct stated for SPR/DSF); chain copies: 2; label: 32P 5' end (EMSA); none stated (SPR); blunt

B1: 26 bp palindromic T-box DNA (dsDNA)
DNA 1: GAATTTCACACCTAGGTGTGAAATTC
DNA 2: GAATTTCACACCTAGGTGTGAAATTC
[1]
  binding result: binds

B2: 24 bp palindromic T-box DNA (dsDNA)
DNA 1: AATTTCACACCTAGGTGTGAAATT
DNA 2: AATTTCACACCTAGGTGTGAAATT
[2]
  binding result: binds

B3: TA50 palindromic 50 bp (TA50-F/TA50-R) (dsDNA)
DNA 1: CATGCATGCAGGGAATTTCACACCTAGGTGTGAAATTCCCATTCGTGCGA
DNA 2: TCGCACGAATGGGAATTTCACACCTAGGTGTGAAATTCCCTGCATGCATG
Brachyury full-length WT [3]
  Kd: 14.8 ± 2.4 nM
[4]
  Kd: 17.9 nM
Brachyury full-length WT [5]
  Kd: 1.4 nM
[6]
  Kd: 1.2 nM

From paper PMC11828899, “Structural insights into human brachyury DNA recognition and discovery of progressible binders for cancer therapy”
